Test results: PMC4633474, “Kinetic properties and stability of glucose dehydrogenase from Bacillus amyloliquefaciens SB5 and its potential for cofactor regeneration” (AMB Express, 2015)

How the values were obtained:
Experiment in all cases: purified protein
Type in all cases: biochemical, Bacillus amyloliquefaciens
purified protein [1] = substrate: NC(=O)c1ccc[n+]([C@@H]2O[C@H](COP(=O)(O)OP(=O)(O)OC[C@H]3O[C@@H](n4cnc5c(N)ncnc54)[C@H](OP(=O)(O)O)[C@@H]3O)[C@@H](O)[C@H]2O)c1; settings: co-substrate glucose, apparent, pH and temperature of kinetics not stated (default assay Tris-Cl pH 8 or CPB buffer, 37 °C), varied: cofactor
purified protein [2] = substrate: OC[C@H]1O[C@@H](O)[C@H](O)[C@@H](O)[C@@H]1O; settings: with 0.5 mM NADP+, apparent, pH and temperature of kinetics not stated (default assay Tris-Cl pH 8 or CPB buffer, 37 °C)
purified protein [3] = substrate: NC(=O)c1ccc[n+]([C@@H]2O[C@H](COP(=O)(O)OP(=O)(O)OC[C@H]3O[C@@H](n4cnc5c(N)ncnc54)[C@H](O)[C@@H]3O)[C@@H](O)[C@H]2O)c1; settings: co-substrate glucose, apparent, pH and temperature of kinetics not stated (default assay Tris-Cl pH 8 or CPB buffer, 37 °C), varied: cofactor

B1: GluDH-BA (Bacillus amyloliquefaciens) (protein)
chain: MYTDLKGKVVAITGASSGLGKAMAIRFGQEQAKVVVNYYSNEKDAQTVKEEIQKAGGEAVIIQGDVTKEEDVKNIVQTAVKEFGTLDVMINNAGMENPVQSHEMPLKDWNKVINTNLTGAFLGSREAIKYYVENDIQGNVINMSSVHEMIPWPLFVHYAASKGGIKLMTETLALEYAPKRIRVNNIGPGAINTPINAEKFADPVQRKDVESMIPMGYIGEPEEIAAVAVWLASKESSYVTGITLFADGGMTKYPSFQAGRG
notes: full length (261 aa, 28 kDa), 6xHis inserted right after start Met, pET23b, E. coli BL21(DE3), Ni-purified; tag cleavage not mentioned
B1 was tested, and the Km (purified protein [1]) was 50 ± 4 µM, the kcat (purified protein [1]) was 70 ± 0.3 s⁻¹ and the Km (purified protein [2]) was 5500 ± 280 µM. For the same protein, the kcat (purified protein [2]) was 70 ± 0.3 s⁻¹ and the Km (purified protein [3]) was 250 ± 30 µM.
